According to article PMC5704011:

T1: human recombinant VEGFR2 (human), P35968
T1 chain: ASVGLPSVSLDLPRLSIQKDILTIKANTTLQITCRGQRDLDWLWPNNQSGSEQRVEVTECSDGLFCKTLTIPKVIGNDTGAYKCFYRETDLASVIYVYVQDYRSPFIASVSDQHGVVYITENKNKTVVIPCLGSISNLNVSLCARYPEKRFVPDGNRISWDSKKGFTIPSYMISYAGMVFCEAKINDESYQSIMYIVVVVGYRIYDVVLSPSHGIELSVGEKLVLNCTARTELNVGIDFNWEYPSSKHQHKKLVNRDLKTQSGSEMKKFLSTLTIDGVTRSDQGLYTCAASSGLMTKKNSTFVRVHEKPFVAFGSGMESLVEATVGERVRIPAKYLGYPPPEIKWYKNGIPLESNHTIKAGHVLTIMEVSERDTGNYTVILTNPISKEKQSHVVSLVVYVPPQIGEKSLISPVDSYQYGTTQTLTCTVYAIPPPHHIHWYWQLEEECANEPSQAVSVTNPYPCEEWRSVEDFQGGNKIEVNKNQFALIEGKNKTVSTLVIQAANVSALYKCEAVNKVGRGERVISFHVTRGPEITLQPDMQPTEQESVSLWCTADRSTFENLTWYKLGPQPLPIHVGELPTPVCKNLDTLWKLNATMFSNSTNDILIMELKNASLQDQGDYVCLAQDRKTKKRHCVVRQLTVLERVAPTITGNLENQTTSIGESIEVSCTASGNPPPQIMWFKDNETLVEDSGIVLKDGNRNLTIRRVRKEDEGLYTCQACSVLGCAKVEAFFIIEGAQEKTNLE

T2: human recombinant PDGFRβ (human), P09619
T2 chain: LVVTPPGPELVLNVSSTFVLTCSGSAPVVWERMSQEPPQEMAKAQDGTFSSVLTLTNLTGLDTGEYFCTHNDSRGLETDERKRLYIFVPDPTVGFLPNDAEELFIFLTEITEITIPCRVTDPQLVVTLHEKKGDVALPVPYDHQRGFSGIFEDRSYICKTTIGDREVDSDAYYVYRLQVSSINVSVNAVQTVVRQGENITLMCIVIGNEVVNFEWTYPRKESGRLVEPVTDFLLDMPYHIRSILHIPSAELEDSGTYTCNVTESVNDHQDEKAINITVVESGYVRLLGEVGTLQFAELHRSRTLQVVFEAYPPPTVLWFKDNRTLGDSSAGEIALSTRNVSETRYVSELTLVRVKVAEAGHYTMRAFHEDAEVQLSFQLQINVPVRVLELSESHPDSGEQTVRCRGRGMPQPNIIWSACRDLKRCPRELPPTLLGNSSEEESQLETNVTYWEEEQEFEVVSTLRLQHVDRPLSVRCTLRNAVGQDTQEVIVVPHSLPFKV


Key:
Conditions in all cases: remark: other sources report otherwise
[1] = target: T1, human recombinant VEGFR2 (human), P35968; test: SPR; BIAcore 3000, 25 °C, CM5 chip; receptor immobilised by amine coupling (~200-500 R.U.); ligand injected at 10, 20 and 40 nM, 30 uL/min, 10 min dissociation; HBS-EP pH 7.4 (10 mM HEPES, 3 mM EDTA, 150 mM NaCl, 0.005% TWEEN-20); angiopoietin-4 reference cell subtracted; global 1:1 Langmuir fit; χ2-to-Rmax > 1.0 or negative association curves taken as no true interaction
[2] = target: T2, human recombinant PDGFRβ (human), P09619; test: SPR; BIAcore 3000, 25 °C, CM5 chip; receptor immobilised by amine coupling (~200-500 R.U.); ligand injected at 40, 20 and 10 nM in HBS-EP pH 7.4 (10 mM HEPES, 3 mM EDTA, 150 mM NaCl, 0.005% TWEEN-20); angiopoietin-4 reference cell subtracted; global 1:1 Langmuir fit; χ^2-to-Rmax < 1.0 taken as a true interaction
[3] = target: T1, human recombinant VEGFR2 (human), P35968; test: as above

koff [1]	kon [1]	Kd [2]	Kd [3]	Binder
2.6e-05 s⁻¹	36000 M⁻¹ s⁻¹			human recombinant PDGF-CC, Q9NRA1 23-345 (ligand, here or on the partner: disulfide-linked homodimer; limits not given, active growth factor domain after cleavage at Arg234 taken by convention) VVDLNLLTEEVRLYSCTPRNFSVSIREELKRTDTIFWPGCLLVKRCGGNCACCLHNCNECQCVPSKVTKKYHEVLQLRPKTGVRGLHKSLTDVALEHHEECDCVCRGSTGG
		1.9 nM	0.07 nM	human recombinant PDGF-CC, Q9NRA1 235-345 (ligand) VVDLNLLTEEVRLYSCTPRNFSVSIREELKRTDTIFWPGCLLVKRCGGNCACCLHNCNECQCVPSKVTKKYHEVLQLRPKTGVRGLHKSLTDVALEHHEECDCVCRGSTGG
